Test results: paper doi:10.1101/2021.06.01.446672 (bioRxiv, 2021)

B1: PYP-binding protein (PBP) from Rhodobacter capsulatus (natural protein, UniProt D5AR21 1-142, looked up)
chain: MDIVGQLMTDNGRYTFRSDTLNLRVTGDFPEWVMAAAAEMVGIVARREVDSKIDELQALVEFGEASEIEIDSVKYDAKERFEIIPQCVVTMGRTDYRWVAPEGRAKHCATFDGNPVTRVHDMSMTRNDSFLDNENGVDTSGH

How the values were obtained:
SEC = molecular target: the molecule itself; assay: SEC
[1] = molecular target: B1; assay: transient grating
[2] = molecular target: B1; assay: transient absorption

Binder	stoichiometry N (SEC)	kon [1]	kon [2]
B1	2	–	–
Photoactive yellow protein from Rhodobacter capsulatus (Rc-PYP) (natural protein, UniProt O69138 1-124, looked up, chromophore (protonated in pUV, deprotonated in pBL; isomerised on photoexcitation)) MEIIPFGTNDIDNILAREPARAESLPFGAVLLDRMGRIAKYNKAEGLIAGRDPSTVIGRDFFNEIAPCAKGKRFHGEFLKFNRTGQANVMLDYKFNYKGAEVAVKIHLKSQPDGQFCWLFVKRA	–	1.1e+06 M⁻¹ s⁻¹	1.2e+06 M⁻¹ s⁻¹
